{"source": "patent US20250136677A1", "about": "(ZOETIS SERVICES, published 2025)", "binders": {"B1": {"name": "A09 (antibody, V domains shown)", "VH": "QVLLVQSGAEVRTPGASVKIFCKASGYSFTSYTIHWLRQAPAQGLEWMGNINPTSGYTENNQRFKDRLTLTADTSTNTAYMELSSLRSADTAMYYCARWGFKYDGEWSFDVWGAGTTVTVSS", "VL": "EIQMTQSPSSLSASPGDRVTITCRASQGASIWLSWYQQKPGNIPKVLINKASNLHIGVPSRFSGSGSGTDFTLTISSLEPEDAATYYCLQSQTYPLTFGGGTKLEIK"}, "B2": {"name": "A18 (antibody, V domains shown)", "VH": "QVLLVQSGAEVRTPGASVKIFCKASGYSFTSYTIHWLRQAPAQGLEWMGNINPTSGYTENNQRFKDRLTLTADTSTNTAYMELSSLRSADTAMYYCARWGFKYDGEWSFDVWGAGTTVTVSS", "VL": "EIQMTQSPSSLSASPGDRVTITCRASQGISIWLSWYQQKPGNIPKVLINKASNAHIGVPSRFSGSGSGTDFTLTISSLEPEDAATYYCLQSQTYPLTFGGGTKLEIK"}, "B3": {"name": "A12 (antibody, V domains shown)", "VH": "QVLLVQSGAEVRTPGASVKIFCKASGYSFTSYTIHWLRQAPAQGLEWMGNINPTSGYTENNQRFKDRLTLTADTSTNTAYMELSSLRSADTAMYYCARWGFKYDGEWSFDVWGAGTTVTVSS", "VL": "EIQMTQSPSSLSASPGDRVTITCRASQGISAWLSWYQQKPGNIPKVLINKASNLHIGVPSRFSGSGSGTDFTLTISSLEPEDAATYYCLQSQTYPLTFGGGTKLEIK"}, "B4": {"name": "A15 (antibody, V domains shown)", "VH": "QVLLVQSGAEVRTPGASVKIFCKASGYSFTSYTIHWLRQAPAQGLEWMGNINPTSGYTENNQRFKDRLTLTADTSTNTAYMELSSLRSADTAMYYCARWGFKYDGEWSFDVWGAGTTVTVSS", "VL": "EIQMTQSPSSLSASPGDRVTITCRASQGISIWLSWYQQKPGNIPKVLINAASNLHIGVPSRFSGSGSGTDFTLTISSLEPEDAATYYCLQSQTYPLTFGGGTKLEIK"}, "B5": {"name": "A16 (antibody, V domains shown)", "VH": "QVLLVQSGAEVRTPGASVKIFCKASGYSFTSYTIHWLRQAPAQGLEWMGNINPTSGYTENNQRFKDRLTLTADTSTNTAYMELSSLRSADTAMYYCARWGFKYDGEWSFDVWGAGTTVTVSS", "VL": "EIQMTQSPSSLSASPGDRVTITCRASQGISIWLSWYQQKPGNIPKVLINKAANLHIGVPSRFSGSGSGTDFTLTISSLEPEDAATYYCLQSQTYPLTFGGGTKLEIK"}, "B6": {"name": "A13 (antibody, V domains shown)", "VH": "QVLLVQSGAEVRTPGASVKIFCKASGYSFTSYTIHWLRQAPAQGLEWMGNINPTSGYTENNQRFKDRLTLTADTSTNTAYMELSSLRSADTAMYYCARWGFKYDGEWSFDVWGAGTTVTVSS", "VL": "EIQMTQSPSSLSASPGDRVTITCRASQGISIALSWYQQKPGNIPKVLINKASNLHIGVPSRFSGSGSGTDFTLTISSLEPEDAATYYCLQSQTYPLTFGGGTKLEIK"}, "B7": {"name": "A10 (antibody, V domains shown)", "VH": "QVLLVQSGAEVRTPGASVKIFCKASGYSFTSYTIHWLRQAPAQGLEWMGNINPTSGYTENNQRFKDRLTLTADTSTNTAYMELSSLRSADTAMYYCARWGFKYDGEWSFDVWGAGTTVTVSS", "VL": "EIQMTQSPSSLSASPGDRVTITCRASQGIAIWLSWYQQKPGNIPKVLINKASNLHIGVPSRFSGSGSGTDFTLTISSLEPEDAATYYCLQSQTYPLTFGGGTKLEIK"}}, "key": {"[1]": {"biological_target": "T1, wildtype feline IL-31 protein (Feline_IL31_wildtype) (feline)", "T1 construct": "Full length feline IL-31 with C-terminal His tag, secreted from ExpiCHO cells; also called fIL-31", "T1 chain": "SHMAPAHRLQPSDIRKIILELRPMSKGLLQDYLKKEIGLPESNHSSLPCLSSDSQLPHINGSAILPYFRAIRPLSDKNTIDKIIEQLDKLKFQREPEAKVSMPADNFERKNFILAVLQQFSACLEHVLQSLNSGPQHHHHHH", "assay": "Biacore, feline IL-31 chip, mAb 100 nM, share of points within parent mean +/-3 SD", "parameters": "key: % of mutant data points within parent mAb mean ±3 SD", "excerpt": "The region of an antibody responsible for antigen recognition represents the paratope. A paratope is created by a combination of amino acids in the complementarity determining regions (CDRs) of both the heavy and light chain variable regions. The binding between antibody and antigen is often mediated by side chains of CDR residues with side chains or carbohydrate moieties of the antigen. To help define critical side chains involved in antibody recognition alanine scanning mutagenesis was performed on each CDR residue in both the heavy and light chain. These mutants were then individually tested for the ability to bind feline IL-31 using the biacore and evaluated for inhibition of IL-31-mediated signaling in the FCWF-4 cell based assay.\nThe mean response unit of four replicates of the parent mAb+/−3 standard deviations was used to generate parameters to define a threshold of response units comprising both the on- and off-rates antibody binding (FIG. 22). The percentage of data points for each mutant fell within this threshold was then used to define a “% similarity score” (FIG. 23)."}, "[2]": {"biological_target": "T1, wildtype feline IL-31 protein …", "assay": "cell-based or functional assay"}}, "data": [{"binder": "B1", "values": [{"measurement": "Binding Similarity score", "setting": "[1]", "result": 100}, {"measurement": "% Inhibition Relative to Parent (pSTAT, FCWF-4 cells)", "setting": "[2]", "result": 28, "unit": "%"}]}, {"binder": "B2", "values": [{"measurement": "Binding Similarity score", "setting": "[1]", "result": 100}, {"measurement": "% Inhibition Relative to Parent (pSTAT, FCWF-4 cells)", "setting": "[2]", "result": 49.4, "unit": "%"}]}, {"binder": "B3", "values": [{"measurement": "Binding Similarity score", "setting": "[1]", "result": 25.7}, {"measurement": "% Inhibition Relative to Parent (pSTAT, FCWF-4 cells)", "setting": "[2]", "result": 19.3, "unit": "%"}]}, {"binder": "B4", "values": [{"measurement": "Binding Similarity score", "setting": "[1]", "result": 11.6}, {"measurement": "% Inhibition Relative to Parent (pSTAT, FCWF-4 cells)", "setting": "[2]", "result": 34.1, "unit": "%"}]}, {"binder": "B5", "values": [{"measurement": "Binding Similarity score", "setting": "[1]", "result": 58}, {"measurement": "% Inhibition Relative to Parent (pSTAT, FCWF-4 cells)", "setting": "[2]", "result": 69.3, "unit": "%"}]}, {"binder": "B6", "values": [{"measurement": "Binding Similarity score", "setting": "[1]", "result": 2.4}, {"measurement": "% Inhibition Relative to Parent (pSTAT, FCWF-4 cells)", "setting": "[2]", "result": 4.4, "unit": "%"}]}, {"binder": "B7", "values": [{"measurement": "Binding Similarity score", "setting": "[1]", "result": 63.4}, {"measurement": "% Inhibition Relative to Parent (pSTAT, FCWF-4 cells)", "setting": "[2]", "result": 26, "unit": "%"}]}]}
